Data taken from patent US20150216998A1, “ENDO180-TARGETED PARTICLES FOR SELECTIVE DELIVERY OF THERAPEUTIC AND DIAGNOSTIC AGENTS” (QBI ENTERPRISES LTD., priority 2012, published 2015).

Assays:
[1] = tested on: ENDO180 expressing cell lines; experiment: FACS binding capacity screening, all tested ENDO180 expressing cell lines; assay type: cell-based
Procedure: For binding analysis, 3.5×10^5 cells were trypsinized, spun down, re-suspended with FACS buffer (1% fetal bovine serum in 1×PBS), incubated for 30 minutes on ice with anti ENDO180 mAbs (1 μg) and washed with 1 ml FACS buffer. mAb samples were incubated with a secondary FITC conjugated goat anti mouse IgG antibody (115-095-072) (1:100, 150 μg/ml) in 50 μl of FACS buffer 30 minutes on ice, resuspended in 1 ml FACS buffer and analyzed using a FACS Calibur flow cytometer.
Cell lines which express different ENDO180 receptor levels were tested: NRK+ (a normal rat kidney), DU145^+ (a human prostate adenocarcinoma), LLC^+ (a mouse Lewis lung carcinoma), DU145^− and LLC^− (control cell lines, which are low expressors of ENDO180 receptor levels, i.e. express the PIRES Puro empty plasmid), A549 (human lung carcinoma) and CT26 (mouse colon carcinoma). NRK+, DU145^+ and LLC^+ stably express ENDO180 receptor levels. A549 and CT26 express naturally unknown levels of ENDO180 receptor. The binding capacity of the above cell lines was compared using 4 different Abs: mAb 8D8 clone, mAb10C12 clone, minibody (MB) and anti-wnt minibody (negative control).
A new batch was tested and the secondary Ab was changed (FITC conjugated goat anti mouse IgG F(ab)2 fragment, 115-095-072, Jackson Immunoresearch). The new MB batch was labeled directly with protein labeling kit.

[2] = tested on: tested cell lines; experiment: Internalization of anti-ENDO180 antibodies into the tested cell lines (confocal microscopy); assay type: cell-based; details: unconjugated Abs followed by secondary FITC goat anti mouse Ab
Procedure: Internalization assays were performed in 24 well plates. 1×10^5 A549 or NRK-ENDO180 or NRK naive cells were seeded on cover slips in RPMI or DMEM medium respectively, supplemented with antibiotics, L-Glutamine and 10% fetal calf serum (Biological Industries, Beit Haemek, Israel).
For membrane staining, cells were stained with CellTracker™ DilC18 (5)-DS solution (Invitrogen, Carlsbad, Calif., USA), diluted 1:5000 with PBS. For cell membrane labeling, Concanavalin A, Alexa fluor 647 conjugate (10 μg/ml) (C21421, Invitrogen) was used. For nuclei staining, cells were stained with Hoechst (1:10,000 in PBS) (33258, Sigma). […] Subsequently, the cells were washed twice using cold PBS, fixated with 4% paraformaldehyde (PFA) and washed again with cold PBS. Membrane and nuclei staining were performed after fixation.
The cells were mounted using fluorescent mounting medium (Golden Bridge international, Mukilteo, Wash., USA) and fluorescence was measured using Andor Spinning disc confocal microscope and the Meta 510 Zeiss LSM confocal microscope. Laser beams at 405, 488, 561 and 650 nm were used for UV, Rhodamine, Concavaline A and CellTracker™, fluorophores excitation respectively. Serial optical sections of the cells were recorded for each treatment and the images were processed using Zeiss LSM Image browser software. […]

B1: MB: anti-ENDO180 scFv clone G7V, SEQ ID NO:6, also known as minibody (protein)
scFv: MKYLLPTAAAGLLLLAASGAHAQVQLVQSGGGLVKPGGSLRLSCAASGFTFSSYSMNWVRQAPGKGLEWVANIKPDGSERHSVDSVKGRFTISRDNSKNSLYLQMNSLRAEDTAVYYCARPGAGRLDYWGQGTLVTVSSGGGGSGGGGSGGGGSNFMLTQDAAVSVALGQTVRITCQGDSLRSYYASWYQQKPGQAPVLVVYGKNNRPSGIPDRFSGSSSGNTASLTITGAQAEDEADYYCNSRDSSGNPWAFGGGTKVTVLASGKPIPNPLLGLDSTHHHHHH
modifications: Polypeptide encoded by SEQ ID NO:5
[1]; all of the tested cell lines, first batch, secondary FITC Ab
  binding capacity: weak binding capacity
[1]; new batch, labeled directly with protein labeling kit, FIGS. 4A-D
  binding capacity: No significant improvement in binding capacity
[2]
  internalization: no internalization
